Test results: patent US9540654B2, “Synthetic brassica-derived chloroplast transit peptides” (Dow AgroSciences LLC, priority 2012, dated 2017)

Legend:
[1] = system: Arabidopsis; assay: dgt-28 as a selectable marker with glyphosate selection; format: in vivo, Arabidopsis thaliana; details: 26.25-1680 g ae/ha glyphosate applied 7 and 11 DAP
Procedure: The use of dgt-28 as a selectable marker for glyphosate selection agent is tested with the Arabidopsis transformed plants described above. Approximately 50 T4 generation Arabidopsis seed (homozygous for dgt-28) are spiked into approximately 5,000 wildtype (sensitive to glyphosate) seed. The seeds are germinated and plantlets are sprayed with a selecting dose of glyphosate. Several treatments of glyphosate are compared; each tray of plants receives either one or two application timings of glyphosate in one of the following treatment schemes: 7 DAP (days after planting), 11 DAP, or 7 followed by 11 DAP. Since all plants also contain a glufosinate resistance gene in the same transformation vector, dgt-28 containing plants selected with glyphosate can be directly compared to DSM-2 or pat containing plants selected with glufosinate.
Glyphosate treatments are applied with a DeVilbiss™ spray tip as previously described. Transgenic plants containing dgt-28 are identified as “resistant” or “sensitive” 17 DAP. […] Sensitive and resistant plants are counted and the number of glyphosate tolerant plants is found to correlate with the original number of transgenic seed containing the dgt-28 transgene which are planted.

[2] = system: Zea mays B104; assay: Post-emergence glyphosate tolerance of dgt-28 T0 corn (greenhouse); format: in vivo; details: T0 dgt-28 corn plants
Procedure: Zea mays dgt-28 transformation events (T0) were allowed to acclimate in the greenhouse and were grown until plants had transitioned from tissue culture to greenhouse growing conditions (i.e., 2-4 new, normal looking leaves had emerged from the whorl). Plants were grown at 27° C. under 16 hour light:8 hour dark conditions in the greenhouse. The plants were then treated with commercial formulations of DURANGO DMA™ (containing the herbicide glyphosate) with the addition of 2% w/v ammonium-sulfate. Herbicide applications were made with a track sprayer at a spray volume of 187 L/ha, 50-cm spray height. T0 plants were sprayed with a range of glyphosate from 280-4480 g ae/ha glyphosate, which is capable of significant injury to untransformed corn lines. A lethal dose is defined as the rate that causes >95% injury to the B104 inbred.
T0 events of dgt-28 linked with TraP4, TraP5, TraP8 and TraP23 were generated by Agrobacterium transformation and were allowed to acclimate under controlled growth chamber conditions until 2-4 new, normal looking leaves had emerged from the whorl. Plants were assigned individual identification numbers and sampled for copy number analyses of both dgt-28 and aad-1. Based on copy number analyses, plants were selected for protein expression analyses. Plants were transplanted into larger pots with new growing media and grown at 27° C. under 16 hour light:8 hour dark conditions in the greenhouse. Remaining plants that were not sampled for protein expression were then treated with commercial formulations of DURANGO DMA™ (glyphosate) with the addition of 2% w/v ammonium-sulfate. Treatments were distributed so that each grouping of plants contained T0 events of varying copy number. Herbicide applications were made with a track sprayer at a spray volume of 187 L/ha, 50-cm spray height. T0 plants were sprayed with a range of glyphosate from 280-4480 g ae/ha glyphosate capable of significant injury to untransformed corn lines. A lethal dose is defined as the rate that causes >95% injury to the B104 inbred. B104 was the genetic background of the transformants.

[3] = system: Zea mays hybrid 4XP811/B104; assay: Glyphosate tolerance of dgt-28 corn under field conditions; format: in vivo; details: corn under field conditions through the reproductive growth stages
Description: Single copy T1 events were sent to a field location to create both hybrid hemizygous and inbred homozygous seed for additional characterization. Hybrid seeds were created by crossing T1 events in the maize transformation line B104 to the inbred line 4XP811 generating hybrid populations segregating 1:1 (hemizygous:null) for the event. The resulting seeds were shipped to 2 separate locations. A total of five single copy events per construct were planted at each location in a randomized complete block design in triplicate. The fields were designed for glyphosate applications to occur at the V4 growth stage and a separate grouping of plants to be applied at the V8 growth stage. The 4XP811/B104 conventional hybrid was used as a negative control.
Experimental rows were treated with 184 g ae/ha ASSURE II™ (106 g ai/L quizalofop-methyl) to eliminate null segregants. All experimental entries segregated 1:1 (sensitive:resistant) (p=0.05) with respect to the ASSURE II™ application. Selected resistant plants were sampled from each event for quantification of the DGT-28 protein by standard ELISA.
Quizalofop-methyl resistant plants were treated with the commercial herbicide DURANGO DMA™ (480 g ae/L glyphosate) with the addition of 2.5% w/v ammonium-sulfate at either the V4 or V8 growth stages. […]

[4] = system: rice; assay: Postemergence glyphosate tolerance of dgt-28 rice (T0, T1); format: in vivo, Oryza sativa; details: following 560 g ae/ha glyphosate used for selection
Procedure: Transplanted rice transformants produced via Agrobacterium transformation were transplanted into media and acclimated to greenhouse conditions. […] Selected T0 events from construct pDAB110828 were treated with 2240 g ae/ha DURANGO DMA™ as previously described and assessed 7 and 14 days after treatment. […] All PCR positive plants were allowed to produce T1 seed for further characterization.
(§1) T1 resistant plants from each event used in the progeny testing were given unique identifiers and sampled for zygosity analyses of the dgt-28 gene. Zygosity data were used to assign 2 hemizygous and 2 homozygous replicates to each rate of glyphosate applied allowing for a total of 4 replicates per treatment. These plants were compared against wildtype kitaake rice. All plants were sprayed with a track sprayer set at 187 L/ha. The plants were sprayed from a range of 560-2240 g ae/ha DURANGO DMA™. All applications were formulated in water with the addition of 2% w/v ammonium sulfate (AMS). Plants were evaluated at 7 and 14 days after treatment. Plants were assigned an injury rating with respect to overall visual stunting, chlorosis, and necrosis. The T1 generation is segregating, so some variable response is expected due to difference in zygosity.

[5] = system: tobacco (cv. Petit Havana); assay: Postemergence glyphosate tolerance of dgt-28 tobacco (T1, T2); format: in vivo; details: tobacco through two generations
Description: as §1, with “Petite havana tobacco.” for “kitaake rice.”, “560-4480” for “560-2240”
Rates of DURANGO DMA™ ranging from 420-3360 g ae/ha glyphosate were applied to 2-3 leaf tobacco as previously described.

B1: DGT-28: EPSP synthase (GENBANK ZP_06917240.1) from Streptomyces sviceus ATCC29083; glyphosate tolerance gene and protein (protein)
chain: MRGMPALSLPGSKSITARALFLAAAADGVTTLVRPLRSDDTEGFAEGLVRLGYRVGRTPDTWQVDGRPQGPAVAEADVYCRDGATTARFLPTLAAAGHGTYRFDASPQMRRRPLLPLSRALRDLGVDLRHEEAEGHHPLTVRAAGVEGGEVTLDAGQSSQYLTALLLLGPLTRQGLRIRVTDLVSAPYVEITLAMMRAFGVEVAREGDVFVVPPGGYRATTYAIEPDASTASYFFAAAALTPGAEVTVPGLGTGALQGDLGFVDVLRRMGAEVSVGADATTVRGTGELRGLTANMRDISDTMPTLAAIAPFASAPVRIEDVANTRVKECDRLEACAENLRRLGVRVATGPDWIEIHPGPATGAQVTSYGDHRIVMSFAVTGLRVPGISFDDPGCVRKTFPGFHEAFAELRRGIGS
[1]
  selection for transgenic Arabidopsis plants with glyphosate: effective selection
[2]
  glyphosate rate up to which tolerance was achieved: up to 4480 g ae/ha
[3]
  glyphosate rate up to which robust tolerance was shown: up to 4480 g ae/ha
[4]
  glyphosate rate up to which tolerance was shown: up to 2240 g ae/ha
[5]
  glyphosate rate up to which robust tolerance was shown: up to 3360 g ae/ha
